To fix the notation:
T1: Full Axl (ECD domain of human Axl) (human, UniProt P30530 26-451)
T1 construct: also called human Axl ECD
T1 sequence: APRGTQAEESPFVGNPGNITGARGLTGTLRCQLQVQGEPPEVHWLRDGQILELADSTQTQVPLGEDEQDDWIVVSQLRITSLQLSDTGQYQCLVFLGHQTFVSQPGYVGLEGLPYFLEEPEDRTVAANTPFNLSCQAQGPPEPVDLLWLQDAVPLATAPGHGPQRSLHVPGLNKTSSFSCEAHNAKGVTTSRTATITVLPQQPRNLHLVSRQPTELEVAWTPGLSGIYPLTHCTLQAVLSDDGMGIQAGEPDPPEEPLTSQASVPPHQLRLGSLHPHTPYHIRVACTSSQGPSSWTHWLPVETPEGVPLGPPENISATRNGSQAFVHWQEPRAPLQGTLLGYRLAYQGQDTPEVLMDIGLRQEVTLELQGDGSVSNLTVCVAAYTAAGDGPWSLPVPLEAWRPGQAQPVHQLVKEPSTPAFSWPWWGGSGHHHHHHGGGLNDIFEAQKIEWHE

T2: mouse MerTK overexpressed on CHO cells (mouse, UniProt Q60805 19-994)
T2 construct: whole, on cells; also called CHO-muMerTK OE
T2 sequence (looked up): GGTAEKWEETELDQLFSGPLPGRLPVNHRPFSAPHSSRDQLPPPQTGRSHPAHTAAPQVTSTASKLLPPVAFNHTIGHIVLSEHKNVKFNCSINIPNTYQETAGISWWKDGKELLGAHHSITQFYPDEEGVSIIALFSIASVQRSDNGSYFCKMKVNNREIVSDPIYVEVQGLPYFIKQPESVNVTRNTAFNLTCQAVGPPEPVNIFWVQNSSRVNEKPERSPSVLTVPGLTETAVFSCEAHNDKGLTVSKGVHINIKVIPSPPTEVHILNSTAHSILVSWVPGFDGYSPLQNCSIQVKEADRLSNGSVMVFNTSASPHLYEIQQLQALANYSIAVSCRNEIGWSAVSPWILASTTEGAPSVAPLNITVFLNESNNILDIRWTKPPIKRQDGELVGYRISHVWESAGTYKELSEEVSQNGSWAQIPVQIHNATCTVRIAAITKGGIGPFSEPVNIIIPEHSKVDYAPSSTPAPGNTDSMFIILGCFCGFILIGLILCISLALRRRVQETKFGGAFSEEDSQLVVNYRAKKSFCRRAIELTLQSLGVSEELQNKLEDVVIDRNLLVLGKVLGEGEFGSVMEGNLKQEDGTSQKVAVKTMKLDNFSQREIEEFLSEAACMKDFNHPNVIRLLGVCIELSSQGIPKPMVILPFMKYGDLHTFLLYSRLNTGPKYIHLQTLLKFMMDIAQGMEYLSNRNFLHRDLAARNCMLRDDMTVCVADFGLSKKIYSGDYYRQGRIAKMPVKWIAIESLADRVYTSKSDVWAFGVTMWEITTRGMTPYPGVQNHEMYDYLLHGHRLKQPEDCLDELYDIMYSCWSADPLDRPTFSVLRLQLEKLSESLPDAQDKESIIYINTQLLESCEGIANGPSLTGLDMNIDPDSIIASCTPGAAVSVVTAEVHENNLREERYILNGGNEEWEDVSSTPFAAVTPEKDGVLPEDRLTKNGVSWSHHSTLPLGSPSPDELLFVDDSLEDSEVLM

B1: MTK-228 (antibody, human IgG1, V domains shown)
VH: QDQLQQSGPELVKPGASVKISCKASGYSFTSYYIHWVKQRPGQGLEWVGWIFPGNGNTKYNERFKGKATLTADTSSSTAYMQLSSLTSEDSAVYYCARLGLIYALDYWGQGTSVTVSS
VL: DAVMTQTPLSLPVSLGDQASISCRSSQSLENSNGNTYLHWYLQKPGQSPQLLIYRVSNRFSGVLDRFSGSGSGTDFTLKISRVEAEDLGVYFCLQVTHVPFTFGSGTKLEIK
B2: MTK-218 (antibody, human IgG1, V domains shown)
VH: B1 VH with D2V, A16T, E46D, V48I, G56R, K59Q, R63K
VL: B1 VL with N35H, L64Q
B3: MTK-226 (antibody, human IgG1, V domains shown)
VH: B1 VH with D2V, V48I, R63N, K65R
VL: B1 VL with N31S, K79Q
B4: MTK-220 (antibody, V domains shown)
VH: EVQLVESGGGLVKPGGSLKLSCAASGFTFSDYGMHWVRQAPEKGLEWVAFISGGSGTIYYEDTVKGRFTISRDNAKNTLFLQMTSLRSEDTAMYYCTRGGNYFDYWGQGTTLTVSS
VL: NIMLTQSPSSLAVSAGEKVTMTCKSSQSVLYSSNQKNYLAWYQQKPGQSPKLLIYWASTRESGVPDRFTGSGSGTDFTLTISNVQAEDLAVYYCHQYFSSWTFGGGTKLEIK
B5: MTK-229 (antibody, human IgG1, V domains shown)
VH: QVQLQQSGPELVKPGASVKISCKASGYEFSRSWMNWVKQRPGKGLEWIGRIYPGDGDTNYKGKLKGQATLTADKSSSTAYMQLSSLTFEDSAVYFCARGGGYYYDSRYEGFVYWGQGTVVTVSA
VL: QIVLTQSPAIMSASPGEEVTMTCSASSSVSYMHWYQQKSGTSPKRWIYDTSKLASGVSGRFSGSGSGTSYSLTISSMEAEDAATYYCQQWSSNPPITFGAGTKLELK
B6: MTK-214 (antibody, human IgG1, V domains shown)
VH: QVQLQQPGAELVKPGASVKVSCKASGYTFTNYWMHWMKQRPGQGLEWIGRIHPFDSDTNYNEKFTDKATLTVDKSSSTAYMQLSSLTSEDSAVYYCAIGTLIYWGQGTTLTASS
VL: DILLTQSPATLSVTPGETVSLSCRASQSIYKKLHWFQQRSHRSPRLLIKFASDSISGIPSRFTGSGSGTDYTLSINSVKPEDEAIYYCLQGYSTPLTFGAGTKLELK
B7: MTK-223 (antibody, human IgG1, V domains shown)
VH: DVQLQESGPGLVKPSQSLSLTCSVTGYSITSGYYWNWIRQFPGNKLEWMGYISYDGTNNYNPSLKNRISITRDTSENQFFLKLNSVTTEDTATYFCVRGAGYWGQGTTLTVSS
VL: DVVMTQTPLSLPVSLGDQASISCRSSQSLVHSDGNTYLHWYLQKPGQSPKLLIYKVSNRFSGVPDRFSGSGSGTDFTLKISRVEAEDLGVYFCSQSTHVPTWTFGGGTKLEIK
B8: MTK-213 (antibody, human IgG1, V domains shown)
VH: QVQLQQPGAELVKPGASVKMSCKASGYTFTSYWITWVKQRPGQGHEWIGEIYPGIGSTNYNEKFKSKATLTVDTSSRTAYMQLSSLTSEDSAVYFCARGAYTKYYFDYWGQGTTLTVSS
VL: DIVMTQSHKFMSTSVGDRVSITCKASQDVGDAVAWYQQKPGQTPKLLIYWASTRHTGVPDRFTGSGSGTDFTLTISNVQSEDLADYFCQQYSSYLMYTFGGGTKLEIK
B9: MTK-227 (antibody, human IgG1, V domains shown)
VH: EVKLVESGGGLVQPGGSLSLSCAASGFTFTDNYMTWVRQPPGKALEWLGFSRNKANGYTTEYSASVKGRFTISRDSSQSILYLQMNALRAEDSGTYYCARFPPHYYAGGYFDVWGTGTTVTVSS
VL: DIQMTQSPASLSASVGETVTITCRASENIYSYLAWYQQKQGKSPQLLVYNAKTLAEGVPSRFSGSGSGTQFSLKINSLQPADFGSYYCQHYYRTPPTFGGGTKLEIK
B10: MTK-206 (antibody, human IgG1, V domains shown)
VH: QVQLQQSGAELARPGASVKMSCKASGYTFTSYTMHWVKQRPGQGLEWIGYINPSSGYIKNSQKFKDKATLTADKSSSTAYMQLSSLTSEDSAVYYCARTVYGYYGSSPDYWGQGTTLTVSS
VL: DIQMTQSPSSLSASLGERVSLTCRASQDIGSNLNWLQQEPDGTIKRLIYATSSLESGVPKRFSGSRSGSDYSLTISSLESEDFVDYYCLQYDSSPWTFGGGTKLEIK
B11: MTK-207 (antibody, human IgG1, V domains shown)
VH: QVQLKESGPGLVAPSQSLSITCTVSGISLTSYGVSWVRQPPGKGLEWLGIIWGDGSTNYHSALISRLSISKDNSKSQVFLKLNSLQTDDTATYYCAKGRYGNYEDWYFDVWGTGTTVTVSS
VL: DIQMTQSPASLSASVGETVTITCRASGNIHNYLAWYQQKQGKSPQLLVYNAKTLAAGVPSRFSGSGSGTQYSLKINSLQPEDFGSYYCQHFWSIPLTFGAGTKLELK
B12: MTK-201 (antibody, human IgG1, V domains shown)
VH: QVQLRQSGPGLVQPSQSLSITCTVSGFSLSNYGLHWVRQSPGKGLEWLGVIWSGGITDYNAAFISRLSIIKDNSRSQVFFKMNSLQADDTAIYYCARKGHDPYAMDFWGQGTSVTVSS
VL: QIVLTQSPPIMSAFLGERVTMTCTASSSVSSSYLHWYRQMPGSSPKLWIYDTSNLASGVPARFSGSGSGTSYSLTISSMEAEDAATYYCHQYHHSPYTFGGGTKLEIK
B13: MTK-208 (antibody, human IgG1, V domains shown)
VH: QVQLQQPGAELVVPGASVRLSCKASGYTFINYWMHWVKQRPGQGLEWIGEIDPSDSYANYNQKFKDKSTLSLDKSSSTAYMQLSSLTSEDSAVYYCARCDYYGRLDYWGQGTTLTVSS
VL: QVVLTQSPAIMSASPGEKVTITCSASSSVSYMLWFQQKPGTSPKLWIYSTSNLASGVPARFSGSGSGTSYSLTISRLEAEDAATYYCQQRSSYPPITFGAGTKLELK
B14: MTK-211 (antibody, human IgG1, V domains shown)
VH: QVQLQQSGAELMKPGASVKLSCKATGYTFTGYWIEWVKQRPGHGLEWIGEILPGSGGSNYNEKFKGKATFTADTSSNTAYIQLSSLTTEDSAIYCCARGEPSYFSDAGFAYWGQGTLVTVSA
VL: QIVLTQSPAVMSASPGEKVTMTCSASSSITYMHWYQQKPGTSPKRWIYDTSKLASGVPARFSGSGSGTSYFLTISSMEAEDVATYYCHQRSTYPYTFGGGTKLEIM

Residue numbers refer to the chain shown, from its start.

The first experiment deals with T1, Full Axl (ECD domain of human Axl). In words: SPR (data not shown). The protocol: Binding of anti-MerTK antibodies of the present disclosure to these domain-swapped chimera or deletion mutants was tested by Surface Plasmon Resonance (SPR) using Carterra LSA. Purified anti-MerTK antibodies were immobilized in duplicate on a HC30M chip (Carterra) by amine coupling, following the manufacturer's instructions (described previously).
Supernatants containing the constructs were diluted 1:1 with running buffer containing 0.5 mg/mL BSA (HBS-TE, Carterra; BSA, Sigma) and injected over the immobilized antibodies. The surface was regenerated with 10 mM Glycine pH2.0 after each construct injection. Sensorgrams were analyzed using Carterra Epitope software to identify patterns of construct binding. Loss of binding to MerTK constructs with domains deleted or swapped in from Axl and/or gain of binding to Axl constructs with MerTK domains swapped in were evaluated. Data from these studies were used to construct a domain binding map for anti-MerTK antibodies and their binding to various domains of human MerTK.
B1: the binding result was “no binding”.
Same read-out and setting: for B2 the value was “no binding”.
On the same count and under the same terms, for B3 the value was “no binding”.
Same read-out and setting: for B4 the value was “no binding”.
With B5, the binding result is listed as “no binding”.
B6: the binding result was “no binding”.
Still for that read-out and setting: for B7 the value was “no binding”; for B8, “no binding”.
The same measure, in the same setting: for B9 the value was “no binding”.
Still for that read-out and setting: for B10 the value was “no binding”.

The target of the next experiment is T2, mouse MerTK overexpressed on CHO cells. Description: FACS, CHO-muMerTK OE cells, 10 ug/ml. The protocol: To determine whether recombinant anti-human MerTK antibodies of the present disclosure bind to human MerTK endogenously expressed on SK-MEL-5 cells and CHO cells overexpressing mouse MerTK (CHO-muMerTK OE cells), as compared to A375 and parental CHO cells as negative controls, the following experiments were performed. SK-MEL-5 cells, A375 cells, CHO-muMerTK OE cells, and CHO parental cells were plated at 100,000 cells/well. Anti-MerTK antibodies were added to the cells at 10 μg/ml. After 60 minutes on ice, cells were washed and then stained with PE-conjugated goat anti-human IgG antibody (Southern Biotech Cat #2040-09, Birmingham, AL) in the presence of Fc block solution on ice for 30 minutes, and then washed twice with cold FACS buffer (2% FBS in PBS). Mouse anti-human MerTK-PE conjugated (Biolegend, Clone 590H11G1E3) or anti-mouse MerTK-PE conjugated (ThermoFisher, Clone DS5MMER) antibodies were used as positive controls. Stained cells were acquired on a BD FACS Canto II cytometer and the mean fluorescence intensity (MFI) was calculated with FlowJo.
For orientation: In flow cytometry, cells or beads pass a laser one at a time.
B1 yielded an MFI of 17400 MFI.
Still for that read-out and setting: for B2 the value was 13200 MFI.
The same measure, in the same setting: for B3 the value was 11500 MFI.
Still for that read-out and setting: for B4 the value was 5800 MFI.
B11 yielded an MFI of 279 MFI.
Take B12: the MFI was 252 MFI.
As to B5, the MFI is 2000 MFI.
Same read-out and setting: for B13 the value was 329 MFI; for B7, 234 MFI; for B8, 12800 MFI.
Same read-out and setting: for B9 the value was 14200 MFI; for B14, 5160 MFI.

For the origin of these results see patent US20240294650A1 (Alector, published 2024).
